± gives the standard error.

Results on 29 sequences are retold here after the supplement of paper PMC9428881.

This data set can be described thus: background-corrected fluorescence of 3'-dye-labeled ssDNA relative to brightest sequence (3'-GCGCG) (fraction); higher = brighter dye fluorescence (less quenching). Summed up: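 Each of 1024 permuted pentamers was synthesized as single-stranded DNA on glass slides by light-directed phosphoramidite chemistry, with a 3' Cy3 or Cy5 dye alongside. Arrays were scanned at 532 or 635 nm before and after overnight deprotection with ethylenediamine/ethanol. Values average 10 features per array across at least 3 syntheses. The fluorescence readout, with unlabeled-oligo background removed, is given relative to the brightest sequence.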

As for “TTTTTTCATGAGCAGCAGCATTTTTTTTTTTTTTTGCTTT [TTTCG]”, the background-corrected fluorescence turned out to be 0.5304 ± 0.0051 (dye: Cy3 (3' terminal)) and 0.384 ± 0.038 (dye: Cy5 (3' terminal)).
For “TTTTTTCATGAGCAGCATCATTTTTTTTTTTTTTTGCTTG [GTTCG]”, in that order: 0.465 ± 0.023 and 0.343 ± 0.021.
For “TTTTTTCATGAGCAGCATGATTTTTTTTTTTTTTTGCTTC [CTTCG]”, in that order: 0.388 ± 0.041 and 0.285 ± 0.024.
For “TTTTTTCATGAGCAGCATGCTTTTTTTTTTTTTTTGCTTA [ATTCG]”, in that order: 0.534 ± 0.026 and 0.408 ± 0.03.
Regarding “TTTTTTCATGAGCATCAGCATTTTTTTTTTTTTTTGCTGT [TGTCG]”, the background-corrected fluorescence by setting is: (dye: Cy3 (3' terminal)) 0.594 ± 0.011; (dye: Cy5 (3' terminal)) 0.458 ± 0.038.
On the same counts, the results for “TTTTTTCATGAGCATCATCATTTTTTTTTTTTTTTGCTGG [GGTCG]” are 0.557 ± 0.039 and 0.47 ± 0.032.
On the same counts, the results for “TTTTTTCATGAGCATCATGATTTTTTTTTTTTTTTGCTGC [CGTCG]” are 0.509 ± 0.031 and 0.403 ± 0.029.
For “TTTTTTCATGAGCATCATGCTTTTTTTTTTTTTTTGCTGA [AGTCG]”, in that order: 0.5917 ± 0.0054 and 0.525 ± 0.036.
For the sequence “TTTTTTCATGAGCATGAGCATTTTTTTTTTTTTTTGCTCT [TCTCG]”, the background-corrected fluorescence is 0.497 ± 0.015 (dye: Cy3 (3' terminal)) and 0.337 ± 0.023 (dye: Cy5 (3' terminal)).
For “TTTTTTCATGAGCATGATCATTTTTTTTTTTTTTTGCTCG”, in that order: 0.517 ± 0.015 and 0.375 ± 0.033.
Consider “TTTTTTCATGAGCATGATGATTTTTTTTTTTTTTTGCTCC [CCTCG]”, for which the background-corrected fluorescence is, setting by setting: (dye: Cy3 (3' terminal)) 0.396 ± 0.022; (dye: Cy5 (3' terminal)) 0.286 ± 0.021.
Turning to “TTTTTTCATGAGCATGATGCTTTTTTTTTTTTTTTGCTCA [ACTCG]”, the background-corrected fluorescence is 0.485 ± 0.016 (dye: Cy3 (3' terminal)) and 0.386 ± 0.032 (dye: Cy5 (3' terminal)).
On the same counts, the results for “TTTTTTCATGAGCATGCGCATTTTTTTTTTTTTTTGCTAT [TATCG]” are 0.52 ± 0.019 and 0.376 ± 0.035.
On the same counts, the results for “TTTTTTCATGAGCATGCTCATTTTTTTTTTTTTTTGCTAG [GATCG]” are 0.57 ± 0.036 and 0.422 ± 0.053.
Turning to “TTTTTTCATGAGCATGCTGATTTTTTTTTTTTTTTGCTAC [CATCG]”, the background-corrected fluorescence (dye: Cy3 (3' terminal)) amounted to 0.424 ± 0.02 and the background-corrected fluorescence (dye: Cy5 (3' terminal)) worked out at 0.338 ± 0.031.
For “TTTTTTCATGAGCATGCTGCTTTTTTTTTTTTTTTGCTAA [AATCG]”, in that order: 0.534 ± 0.014 and 0.463 ± 0.032.
On the same counts, the results for “TTTTTTCATGATCAGCAGCATTTTTTTTTTTTTTTGCGTT” are 0.571 ± 0.032 and 0.422 ± 0.024.
Sequence “TTTTTTCATGATCAGCATCATTTTTTTTTTTTTTTGCGTG [GTGCG]” showed a background-corrected fluorescence (dye: Cy3 (3' terminal)) of 0.577 ± 0.012 and a background-corrected fluorescence (dye: Cy5 (3' terminal)) of 0.439 ± 0.023.
For “TTTTTTCATGATCAGCATGATTTTTTTTTTTTTTTGCGTC [CTGCG]”, in that order: 0.481 ± 0.033 and 0.366 ± 0.028.
On the same counts, the results for “TTTTTTCATGATCAGCATGCTTTTTTTTTTTTTTTGCGTA [ATGCG]” are 0.604 ± 0.026 and 0.466 ± 0.026.
On the same counts, the results for “TTTTTTCATGATCATCAGCATTTTTTTTTTTTTTTGCGGT [TGGCG]” are 0.743 ± 0.026 and 0.566 ± 0.036.
As to “TTTTTTCATGATCATCATCATTTTTTTTTTTTTTTGCGGG [GGGCG]”, the background-corrected fluorescence runs as follows: (dye: Cy3 (3' terminal)) 0.701 ± 0.013; (dye: Cy5 (3' terminal)) 0.563 ± 0.045.
“TTTTTTCATGATCATCATGATTTTTTTTTTTTTTTGCGGC [CGGCG]”: the background-corrected fluorescence came to 0.658 ± 0.028 (dye: Cy3 (3' terminal)) and 0.506 ± 0.029 (dye: Cy5 (3' terminal)).
On the same counts, the results for “TTTTTTCATGATCATCATGCTTTTTTTTTTTTTTTGCGGA [AGGCG]” are 0.786 ± 0.033 and 0.689 ± 0.033.
In the case of “TTTTTTCATGATCATGAGCATTTTTTTTTTTTTTTGCGCT [TCGCG]”, the background-corrected fluorescence came to 0.623 ± 0.022 (dye: Cy3 (3' terminal)) and 0.485 ± 0.025 (dye: Cy5 (3' terminal)).
For “TTTTTTCATGATCATGATCATTTTTTTTTTTTTTTGCGCG”, in that order: 1 ± 0.024 and 1 ± 0.035.
As to “TTTTTTCATGATCATGATGATTTTTTTTTTTTTTTGCGCC [CCGCG]”, the background-corrected fluorescence is, setting by setting: (dye: Cy3 (3' terminal)) 0.505 ± 0.024; (dye: Cy5 (3' terminal)) 0.4 ± 0.041.
On to “TTTTTTCATGATCATGATGCTTTTTTTTTTTTTTTGCGCA [ACGCG]”, for which the background-corrected fluorescence runs as follows: (dye: Cy3 (3' terminal)) 0.714 ± 0.027; (dye: Cy5 (3' terminal)) 0.657 ± 0.043.
“TTTTTTCATGATCATGCGCATTTTTTTTTTTTTTTGCGAT [TAGCG]”: the background-corrected fluorescence was 0.5348 ± 0.0049 (dye: Cy3 (3' terminal)) and 0.474 ± 0.037 (dye: Cy5 (3' terminal)).
